{
  "source": "paper PMC11301264",
  "about": "“Bactericidal human monoclonal antibody 1B1 shows specificity for meningococcal factor H binding protein variant 2 and displaces human factor H” (FASEB BioAdvances, 2024)",
  "binders": {"B1": {"name": "human monoclonal antibody 1B1, full-length IgG1 (antibody, V domains shown)", "VH": "EVQLVESGGNLVQPGGSLRLSCAASGFTFSSYSMNWVRQAPGKGLEWVSYISSSSSTIYYADSVKGRFTISRDNAKNSLYLQMNSLRAEDTAVYYCARVAAGLKDWGQGTLVTVSS", "VL": "EIVLTQSPGTLSLSPGERATLSCRASQSISSSYLAWYQQKPGQAPRLLIFGASSRATGIPDRFSGSGSGTGFTLTISRLEPEDFAVYYCQHYDSSLPMTFGQGTKVEIK", "notes": "also called humAb 1B1; mAb 1B1; source: mammalian cells, recombinant, purified as described previously"}},
  "key": {"[1]": {"molecular_target": "fHbp variant 1.1 on live meningococci of MenB strain MC58 (Neisseria meningitidis (endogenous in strain MC58)) (UniProt Q9JXV4)"}, "[2]": {"molecular_target": "fHbp variant 3.28 on live meningococci of MenB strain M1239 (Neisseria meningitidis (endogenous in strain M1239)) (UniProt E6MV22)"}, "[3]": {"molecular_target": "T1, factor H binding protein (fHbp) variant 2.16, wild type, recombinant (Neisseria meningitidis serogroup B, …, strain)", "T1 construct": "Construct described in earlier work; vector pET-21b is named for the template plasmid; also called fHbp var 2; v2.16", "T1 chain": "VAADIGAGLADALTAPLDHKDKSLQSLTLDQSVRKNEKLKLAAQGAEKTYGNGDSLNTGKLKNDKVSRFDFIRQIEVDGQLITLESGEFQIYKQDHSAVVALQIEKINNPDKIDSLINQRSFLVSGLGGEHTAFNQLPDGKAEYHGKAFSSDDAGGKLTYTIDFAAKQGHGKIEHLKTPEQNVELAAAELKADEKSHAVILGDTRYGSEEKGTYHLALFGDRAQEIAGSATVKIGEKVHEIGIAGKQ", "test": "BLI; mAb (1B1 or 4B3, 10 mcg/mL) captured via Fc on Anti-Fc Human (AHC) biosensors; fHbp in solution, 150 to 1 nM; 30°C; 1 x PBS, 1% (w/v) BSA; 1:1 fit", "conditions": "both partners purified"}},
  "data": [
    {"binder": "B1", "values": [
      {"measurement": "hSBA (human complement) titer against MenB strain MC58", "setting": "[1]", "value": "< 4", "unit": "titer"},
      {"measurement": "rSBA (rabbit complement) titer against MenB strain MC58", "setting": "[1]", "value": "< 16", "unit": "titer"},
      {"measurement": "hSBA (human complement) titer against strain 5/99DD complemented with fHbp 3.28", "setting": "[2]", "value": "< 4", "unit": "titer"},
      {"measurement": "rSBA (rabbit complement) titer against strain 5/99DD complemented with fHbp 3.28", "setting": "[2]", "value": "< 16", "unit": "titer"},
      {"measurement": "Kd", "setting": "[3]", "value": 240, "unit": "pM"}
    ]}
  ]
}
